# Source: publication PMC10701690, “Structural characterization of human de novo protein NCYM and its complex with a newly identified DNA aptamer using atomic force microscopy and small-angle X-ray scattering”
# T1: NCYM (Homo sapiens, UniProt P40205 1-109)
# T1 sequence: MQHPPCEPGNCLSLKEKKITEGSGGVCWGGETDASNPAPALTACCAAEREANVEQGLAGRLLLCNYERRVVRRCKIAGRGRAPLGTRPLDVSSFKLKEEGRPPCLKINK
# How the values were obtained:
# NCYM [1] = molecular target: T1, NCYM; assay: BLI; BLI: 25 C, NCYM 25-400 nM, buffer not stated (selection buffer: 40 mM HEPES pH 7.5, 125 mM NaCl, 5 mM KCl, 1 mM MgCl2, 0.01% Tween 20); AFM: 20 mM Tris-HCl pH 7.4, 10 mM MgCl2, 1 mM EDTA, 25 C, 2 h, NCYM 100 nM, aptamer frame 10 nM; SAXS: 293 K; conditions: protein: recombinant, tags: N-terminal GST tag cleaved, 8 vector residues left (117 aa; stated for SAXS), label: 5'-biotin (BLI)
# NCYM [2] = molecular target: T1, NCYM; assay: BLI; text gives 299 nM as top of range; BLI: 25 C, NCYM 25-400 nM, buffer not stated (selection buffer: 40 mM HEPES pH 7.5, 125 mM NaCl, 5 mM KCl, 1 mM MgCl2, 0.01% Tween 20); AFM: 20 mM Tris-HCl pH 7.4, 10 mM MgCl2, 1 mM EDTA, 25 C, 2 h, NCYM 100 nM, aptamer frame 10 nM; SAXS: 293 K; conditions: protein: recombinant; tags: N-terminal GST tag cleaved, 8 vector residues left (117 aa; stated for SAXS); label: 5'-biotin (BLI)
binder,measurement,setting,value
aptamer No. 3 (ssDNA) DNA: GGAATGTGGTCCCTCGCAATAAATCGGGCGTTGTGGAGGGGGCGGTGGGTGGGGGGAAATGAGCCCTTTGACCCTGTAC,Kd,NCYM [1],53.9 ± 1.06 nM
aptamer No. 2 (ssDNA) DNA: GGAATGTGGTCCCTCGCAATAAATCGGGGAGGGAGGGTGGGGGCGGTGGGAGGTGGAAATGAGCCCTTTGACCCTGTAC,Kd,NCYM [2],298 ± 88.7 nM
aptamer No. 1 (ssDNA) DNA: GGAATGTGGTCCCTCGCAATAAATCTATGTACGTTATTCCCCTTTGACCAATGCTGAAATGAGCCCTTTGACCCTGTAC,Kd,"NCYM [1]; stem-loops predicted by RNAfold, dimer in solution (SAXS)",176 ± 29.1 nM
